{
  "source": "patent US20240101717A1",
  "about": "(BIONECURE THERAPEUTICS, published 2024)",
  "binders": {"B1": {"name": "A1,2X4-MMAE ADC (antibody, V domains shown)", "VH": "QVQLQESGPGLVKPSETLSLTCTVSGFSLTSYGVNWIRQPPGKGLEWIGVMWAGGSTNYNSALMSRLTISKDTSKNQFSLKLSSVTAADTAVYYCARDENWDGAWFAYWGQGTLVTVSS", "VL": "DIVMTQSPDSLAVSLGERATINCKSSQSLLNSGTRKNYLAWYQQKPGQPPKLLISWASSRESGVPDRFSGSGSGTDFTLTISSLQAEDVAVYYCKQSYNLFTFGGGTKVEIK", "modifications": "MMAE-linker conjugated to the antibody; positions not given"}},
  "biological_target": "T1, human Trop-2 (human, UniProt P09758 27-323)",
  "T1 sequence (looked up)": "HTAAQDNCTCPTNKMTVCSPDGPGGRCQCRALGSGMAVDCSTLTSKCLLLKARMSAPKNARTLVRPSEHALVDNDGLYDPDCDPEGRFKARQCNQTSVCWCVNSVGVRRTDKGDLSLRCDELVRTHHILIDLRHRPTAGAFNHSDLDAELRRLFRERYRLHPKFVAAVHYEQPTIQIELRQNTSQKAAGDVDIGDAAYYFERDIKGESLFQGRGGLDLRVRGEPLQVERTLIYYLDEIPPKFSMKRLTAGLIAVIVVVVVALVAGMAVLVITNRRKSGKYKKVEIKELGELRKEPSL",
  "assay": "cell-based or functional assay",
  "data": [
    {"binder": "B1", "values": [
      {"measurement": "IC50 (nM), in vitro cytotoxicity assay on MDA-MB-468 cells", "value": 0.389, "unit": "nM"}
    ]}
  ]
}
